Data from US20140271651A1 (AbbVie / Abbott, published 2014).

B4: GP73-hFc (human GP73 amino acids 63 to 400 fused at the C-terminus to human IgG1 Fc) (Fc fusion)
chain: ELKKNEFQGELEKQREQLDKIQSSHNFQLESVNKLYQDEKAVLVNNITTGERLIRVLQDQLKTLQRNYGRLQQDVLQFQKNQTNLERKFSYDLSQCINQMKEVKEQCEERIEEVTKKGNEAVASRDLSENNDQRQQLQALSEPQPRLQAAGLPHTEVPQGKGNVLGNSKSQTPAPSSEVVLDSKRQVEKEETNEIQVVNEEPQRDRLPQEPGREQVVEDRPVGGRGFGGAGELGQTPQVQAALSVSQENPEMEGPERDQLVIPDGQEEEQEAAGEGRNQQKLRGEDDYNMDENEAESETDKQAALAGNDRNIDVFNVEDQKRDTINLLDQREKRNHTLRSVECPPCPAPPVAGPSVFLFPPKPKDTLMISRTPEVTCVVVDVSHEDPEVQFNWYVDGMEVHNAKTKPREEQFASTFRVVSVLTVVHQDWLNGKEYKCKVSNKGLPAPIEKTISKTKGQPREPQVYTLPPSREEMTKNQVSLTCLVKGFYPSDIAVEWESNGQPENNYKTTPPMLDSDGSFFLYSKLTVDKSRWQQGNVFSCSVMHEALHNHYTQKSLSLSPGK
notes: Expressed in HEK293F, CHO or HepG2 cells; the host is named under assay; also called HEK expressed GP73-hFc; CHO expressed GP73-hFc

Legend:
bovine serum albumin [1] = molecular target: T1, bovine serum albumin (bovine, UniProt P02769 25-607); experiment: sandwich EIA, rabbit anti-GP73 coated 1 ug/mL, BSA background, supernatant 1:125, HRP goat anti-mouse IgG Fc
T1 construct: also called BSA
T1 sequence (P02769 25-607 limits assumed): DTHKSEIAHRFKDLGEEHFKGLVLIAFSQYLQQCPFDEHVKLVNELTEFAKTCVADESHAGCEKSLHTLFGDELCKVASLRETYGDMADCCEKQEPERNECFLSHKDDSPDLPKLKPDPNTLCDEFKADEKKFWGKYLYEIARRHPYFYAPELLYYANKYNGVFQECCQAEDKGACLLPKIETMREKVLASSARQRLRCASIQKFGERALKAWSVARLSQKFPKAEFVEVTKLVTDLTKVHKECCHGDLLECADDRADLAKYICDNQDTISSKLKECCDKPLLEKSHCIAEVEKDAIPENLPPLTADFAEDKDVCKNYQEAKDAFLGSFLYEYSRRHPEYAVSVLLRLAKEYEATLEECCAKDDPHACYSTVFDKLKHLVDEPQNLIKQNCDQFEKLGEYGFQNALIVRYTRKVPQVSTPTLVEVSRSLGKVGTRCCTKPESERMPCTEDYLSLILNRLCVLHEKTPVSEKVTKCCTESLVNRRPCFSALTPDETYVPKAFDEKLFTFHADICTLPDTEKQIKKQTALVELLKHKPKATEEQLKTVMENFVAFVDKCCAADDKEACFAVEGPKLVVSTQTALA
Method: (§1) Cell supernatant samples were analyzed for anti-GP73 antibodies by EIA. Sheep anti-mouse IgG Fc (Jackson Immunoresearch) was coated on 96 well micro-titer EIA plates at 1 μg/mL. After the capture reagent was coated on the solid phase, it was removed and the plates were blocked using a BSA/PBS block solution. The wells were washed with distilled water and cell supernatants were added to the blocked plates and allowed to incubate at room temperature for at least one hour. A mouse monoclonal antibody 14H4-23 (Drexel University) was used a positive control. The anti-mouse IgG Fc captured the anti-GP73 mouse antibody from the supernatant. Following the incubation, the supernatants were washed off using distilled water. An irrelevant mouse-human chimeric antibody was added to all wells and incubated at room temperature for 30 min to block any captured mouse antibodies that react with the human IgG Fc fusion protein linked to the GP73 antigen. The wells were washed with distilled water and GP73-hFc was added to the plates at 200 ng/mL and incubated for 30 min. Following this incubation, the antigen was washed from the plates using distilled water. Biotin labeled goat anti-GP73 was added to the plates at 200 ng/mL and incubated for 30 min at room temperature. The plates were washed and streptavidin-HRPO (Jackson Immunoresearch) (diluted to approximately 200 ng/mL) was added to the plates and allowed to incubate for 30 min. The plates were washed with distilled water and OPD substrate was used as the chromagen to generate signal. Plates were read at 492 nm and the results were analyzed.
(§2) The 24 well cultures were then evaluated by EIA for their ability to form a sandwich with the rabbit anti-GP73 used as a capture reagent coated directly on the solid phase. The same EIA protocol previously described was used, except rabbit anti-GP73 antibody was coated at 1 μg/mL, the GP73-hFc was tested at 200 ng/mL, and a HRP labeled goat anti-mouse IgG FC antibody was used as the conjugate reagent to generate signal.

[2] = molecular target: T2, E. coli expressed human GP73 (amino acids 63 to 400) with C-terminal 6xHis tag (human, UniProt Q8NBJ4 64-401); experiment: Western blot on E. coli expressed GP73 antigen
T2 construct: No human Fc, not glycosylated; also called GP73 produced in E. coli; E. coli GP73
T2 sequence: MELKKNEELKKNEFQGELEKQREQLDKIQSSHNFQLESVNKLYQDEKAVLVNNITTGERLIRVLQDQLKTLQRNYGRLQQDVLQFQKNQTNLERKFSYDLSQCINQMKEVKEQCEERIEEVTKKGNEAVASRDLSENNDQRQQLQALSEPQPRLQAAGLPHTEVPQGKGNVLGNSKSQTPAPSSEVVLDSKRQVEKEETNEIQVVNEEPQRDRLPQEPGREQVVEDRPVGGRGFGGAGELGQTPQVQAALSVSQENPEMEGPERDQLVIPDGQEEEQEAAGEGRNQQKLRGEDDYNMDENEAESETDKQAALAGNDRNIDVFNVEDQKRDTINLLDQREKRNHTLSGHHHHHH
Method: The mammalian cell (HEK and CHO) expressed GP73-hFc or E. coli expressed GP73, as described above, were electrophoresed in a 4-20% SDS-PAGE gel. […] The nitrocellulose membrane was blocked with PBS buffer containing 5% non-fat dry milk and 0.05% Tween 20 for about 1 hr. The nitrocellulose membrane was incubated with an appropriate amount of anti-GP73 monoclonal antibody in 10 mL of 2.5% non-fat dry milk and 0.05% Tween 20 PBS buffer, pH 7.2. The nitrocellulose membranes were washed with 0.05% Tween 20/PBS, pH 7.2, incubated with goat anti-mouse IgG antibody conjugated with HRP for 1 hr at room temperature, and washed with 0.05% Tween 20/PBS buffer. Antibody bound to the GP73 protein was visualized by the addition of freshly prepared metal enhanced 3,3′-Diaminobenzidine in stable peroxide buffer (Pierce, Ill.).

[3] = molecular target: B4; experiment: sandwich EIA, rabbit anti-GP73 coated 1 ug/mL, GP73-hFc 200 ng/mL, supernatant 1:125, HRP goat anti-mouse IgG Fc
Method: as §1, §2

[4] = molecular target: B4; experiment: EIA, supernatant mAb captured on sheep anti-mouse IgG Fc, GP73-hFc 200 ng/mL, biotin goat anti-GP73/streptavidin-HRPO; background 0.06
Method: as §1

[5] = molecular target: B4; experiment: SPR Biacore 2000, mAb captured on rabbit anti-mouse IgG, HEK GP73-hFc analyte 0.412-100 nM, 1:1 fit
Method: First, an approximately 13,000-15,000 RU rabbit anti-mouse IgG Capture Biosensor was created by amine-coupling rabbit anti-mouse IgG antibody (GE Healthcare) to a CM5 biosensor chip (GE Healthcare) via EDC/NHS/ethanolamine chemistry provided in an Amine Coupling Kit (GE Healthcare) after pre-treating the biosensor with duplicate injections of 100 mM HCl, 50 mM NaOH, and 0.1% SDS. Purified GP73 antibody and antigen (HEK GP73-hFc) were diluted into a running buffer (hereinafter “running buffer”) composed of HBS-EP buffer (GE Healthcare) supplemented with 0.1% BSA and 0.1% CM-Dextran. Each GP73 antibody was diluted to 1 μg/mL. The GP73-hFc antigen was diluted to concentrations of 0.412 to 100 nM using a 3-fold dilution series assuming an oligomeric molecular weight of 490 kDa (Abbott Laboratories).
The GP73-hFc antigen program was as follows. After equilibrating the rabbit anti-mouse IgG Capture Biosensor for 3 min at 5 μL/minute with running buffer, GP73 antibody (7-14 μL) was injected over individual flow cells with one flow cell being left blank as a reference flow cell. The flow cells were washed with running buffer for 3 min at a flow rate of 60 μL/min. 150 μL of HEK293 expressed GP73-hFc antigen at a random concentration was injected across the biosensor. The biosensor was subsequently re-equilibrated with running buffer for 5 min at a flow rate of 60 μL/minute. All biosensor surfaces were regenerated with one 30 μL injection of 10 mM glycine, pH 1.7 (GE Healthcare), at a flow rate of 10 μL/minute. All concentrations of HEK293 expressed antigen were tested in duplicate. The binding kinetics (association and dissociation) were monitored via sensorgrams during antigen injection and running buffer re-equilibration. The sensorgrams were double-referenced and fit to a 1:1 binding model using Scrubber 2.0 software (BioLogic Software Pty Ltd., Australia) to determine association and dissociation rates, as well as overall KD. Standard errors of determined values are reported in parentheses with respect to the smallest number place value.

bovine serum albumin [6] = molecular target: T1, bovine serum albumin; experiment: EIA, supernatant 1:25 captured on sheep anti-mouse IgG Fc, BSA in place of antigen
Method: as §1
Positive clones were expanded to 24 well plates in IMDM supplemented with 10% FBS and HT supplement. Following 5-14 days growth, the 24 well cultures were evaluated by EIA in the same manner as previously described, except the supernatant samples were titrated against GP73-hFc and BSA to eliminate non-specific protein binders. Once again the clones generating signal at least 3 times greater than background were considered positive and selected for further evaluation.

Aleuria aurantia lectin = molecular target: T3, Aleuria aurantia lectin (Aleuria aurantia, UniProt P18891 2-313); experiment: EIA, GP73-hFc captured on donkey anti-human IgG Fc, biotin AAL pre-mixed with free fucose
T3 construct: also called AAL; free AAL
T3 sequence (looked up): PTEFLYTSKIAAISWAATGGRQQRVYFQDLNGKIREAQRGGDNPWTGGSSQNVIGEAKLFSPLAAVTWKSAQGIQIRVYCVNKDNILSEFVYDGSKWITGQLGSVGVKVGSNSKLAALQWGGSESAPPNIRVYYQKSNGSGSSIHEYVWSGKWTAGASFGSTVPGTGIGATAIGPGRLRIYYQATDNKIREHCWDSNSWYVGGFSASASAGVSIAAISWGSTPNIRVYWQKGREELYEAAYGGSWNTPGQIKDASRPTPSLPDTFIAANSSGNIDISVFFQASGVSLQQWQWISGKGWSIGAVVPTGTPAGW
Method: The biotin labeled anti-GP73 mAbs were tested to determine if they were sensitive to the presence of fucose on the GP73-hFc antigen by EIA. Aleuria Aurantia Lectin (AAL) (Vector Laboratories) binds fucose with a high degree of specificity. Donkey anti-human IgG Fc (Jackson Immunoresearch) was coated on 96 well micro titer EIA plates at approximately 1 μg/mL. After the capture reagent was coated on the solid phase, the capture reagent was removed and the plates were blocked for 30 min using Protein-Free T20 (TBS) Blocking Buffer (Thermo Scientific). The wells were washed with distilled water. A 200 ng/mL solution of GP73-hFc antigen was added to the blocked plates and allowed to incubate at room temperature for at least 45 min then washed with distilled water. Fucose was added to the wells of a separate non-absorbing microtiter plate in serial dilutions starting from 1000 μg/mL Biotin labeled anti-GP73 mAbs were added to the plates at predetermined concentrations for each mAb ranging from 50 to 2000 ng/mL and incubated for 45 min at room temperature. The mixture was added to the microtiter plates with the captured GP73-hFc and allowed to incubate for 15-20 min at room temperature. Biotin labeled AAL was used as a positive control for the assay and a biotin labeled irrelevant mAb was used as the negative control. […] Plates were read at 492 nm and the results were analyzed.

B1: anti-GP73 monoclonal antibody 1B-3246 (antibody, V domains shown)
VH: DVKLVESGGGLVKPGGSLKLSCAASGFTFSSYTMSWVRQTPEKRLEWVATISRGGTYIYYPDSVKGRFTISRDNAKNTLYLQMSSLKSEDTAIYYCTREYFSGDTYDYFDYWGQGTTLTVSS
VL: EIVMTQAAFANPVTLGTSVSISCRSSKSLLHSNGITYLYWYLQKPGQSPQLLIYQMSNLASGVPDRFSSSGSGTDFTLRISRVEAEDVGIYYCAQNLELYTFGGGTKLEIKR
notes: Biotin labelled in some assays; also called mAb 1B-3246; 1B-3246-Bt
Bovine serum albumin [1]
  BSA Background OD (A492): 0.1 OD (A492)
[2]
  binding result: binds
[3]
  GP73-hFc OD (A492): 0.79 OD (A492)
[4]
  OD (A492): 1.48 OD (A492)
[5]
  Kd: 0.079 nM
  koff: 0.00025 s⁻¹
  kon: 3.18e+06 M⁻¹ s⁻¹

B2: anti-GP73 monoclonal antibody 1A-3187 (antibody, V domains shown)
VH: QGQLQQSGAELMKPGASVKISCKATGYTIRSYWIEWVKQRPGHGLEWIGEILPGSGNTNYNEKFKGTATFTADTSSNTVYLHLSSLTSEDSAVYYCANGRGSYRYHWFAYWGQGTLVTVSP
VL: DIVLTQSPASLAVSLGQRATISCKASQSVDYDGDSYMNWYQQKPGQPPKVLIYAASNLESGIPARFSGSGSGTDFTLNIHPVEEEDAATYYCQQSNEDPYTFGGGTKLEMKR
notes: Biotin labelled in some assays
Bovine serum albumin [1]
  BSA Background OD (A492): 0.09 OD (A492)
Bovine serum albumin [6]
  BSA Background OD (A492): 0.11 OD (A492)

B3: anti-GP73 monoclonal antibody 1A-4246 (antibody, V domains shown)
VH: EVMLVESGGGLVKPGGSLKLSCAASGFTFSSYAMSWVRLTPEKRLEWVATISSGSSYTYYPDSVKGRFTISRDNVKSTLYLQMSSLRSEDTAMYYCARNWDGELHYYAMDYWGQGTSVTVSS
VL: QIVLTQSPAIMSASLGERVTMTCTASSSVSSSYLHWYQQKPGSSPKLWVYSTSSLASGVPARFSGSGSGTSYSLTINNMEAEDAATYFCHQYHRSPYTFGGGTKLEIKR
notes: Biotin labelled in some assays; also called mAb 1A-4246; 1A-4246-Bt
Bovine serum albumin [6]
  BSA Background OD (A492): 0.04 OD (A492)

## B4
Aleuria aurantia lectin
  binding result: binds
